In PMC9352680, “A comprehensive thermodynamic model for RNA binding by the Saccharomyces cerevisiae Pumilio protein PUF4”:

T1: PUF4 RNA-binding domain (Saccharomyces cerevisiae, UniProt P25339 537-888)
T1 sequence: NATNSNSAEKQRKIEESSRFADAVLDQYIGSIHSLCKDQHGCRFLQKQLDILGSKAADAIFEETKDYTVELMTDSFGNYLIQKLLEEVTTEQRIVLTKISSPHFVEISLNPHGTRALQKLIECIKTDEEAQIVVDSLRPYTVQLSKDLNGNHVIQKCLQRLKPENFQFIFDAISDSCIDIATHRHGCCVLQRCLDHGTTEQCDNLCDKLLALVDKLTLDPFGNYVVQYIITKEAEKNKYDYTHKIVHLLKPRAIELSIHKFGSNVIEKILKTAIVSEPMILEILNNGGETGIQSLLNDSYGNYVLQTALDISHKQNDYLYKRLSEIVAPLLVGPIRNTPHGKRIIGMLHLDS

B1: Id_ii_S3_P3E.4_K3.3_C3.2_[T-1C]_H3.3_A3.1_F3.1_T3.2_[T9C]_[A10G] (ssRNA)
RNA: ACAAACCCACACUAUACGACAAAC
B2: Id_ii_S3_P3E.4_K3.3_C3.2_[T-1C]_H3.3_A3.1_F3.1_T3.2_[T9A]_[A10G] (ssRNA)
RNA: ACAAACCCACACUAUAAGACAAAC
B3: Ib_S1_P5E.1_K5.1_C5.1_H5.1_A5.1_[T5A]_F5.1_[A10T]_T5.1 (ssRNA)
RNA: UCUCUUUGUAAUAUUUUCUCUU
B4: Id_ii_S3_P3E.4_K3.3_C3.2_[T-1C]_H3.3_A3.1_F3.1_T3.2_[A10T] (ssRNA)
RNA: ACAAACCCACACUAUAUUACAAAC
B5: Id_ii_S3_P3E.4_K3.3_C3.2_H3.3_A3.1_F3.1_T3.2_[T9G]_[A10C] (ssRNA)
RNA: ACAAACCUACACUAUAGCACAAAC
B6: Id_ii_S3_P3E.4_K3.3_C3.2_H3.3_A3.1_F3.1_T3.2_[T9G] (ssRNA)
RNA: ACAAACCUACACUAUAGAACAAAC
B7: Id_ii_S3_P3E.4_K3.3_C3.2_H3.3_A3.1_F3.1_T3.2_[T9C]_[A10T] (ssRNA)
RNA: ACAAACCUACACUAUACUACAAAC
B8: Id_ii_S3_P3E.4_K3.3_C3.2_H3.3_A3.1_F3.1_T3.2_[T9C] (ssRNA)
RNA: ACAAACCUACACUAUACAACAAAC
B9: Id_ii_S3_P3E.4_K3.3_C3.2_H3.3_A3.1_F3.1_T3.2_[T9A]_[A10T] (ssRNA)
RNA: ACAAACCUACACUAUAAUACAAAC
B10: Id_ii_S3_P3E.4_K3.3_C3.2_H3.3_A3.1_F3.1_T3.2_[T9A] (ssRNA)
RNA: ACAAACCUACACUAUAAAACAAAC
B11: Id_ii_S3_P3E.4_K3.3_C3.2_H3.3_A3.1_F3.1_T3.2_[A10G] (ssRNA)
RNA: ACAAACCUACACUAUAUGACAAAC
B12: Id_ii_S3_P3E.4_K3.3_C3.2_H3.3_A3.1_F3.1_T3.2_[A10C] (ssRNA)
RNA: ACAAACCUACACUAUAUCACAAAC
B13: Id_ii_S3_P4E.3_K4.2_C4.2_[C-2G]_[T-1G]_H4.2_A4.1_F4.1_T4.2_[G10A]_[T11G] (ssRNA)
RNA: ACAAACGGUAUAUAUUAAGACAAAC
B14: Ib_S1_P5E.1_K5.1_C5.1_H5.1_A5.1_[T6G]_F5.1_[A10C]_T5.1 (ssRNA)
RNA: UCUCUUUGUAUGAUUCUCUCUU
B15: Id_ii_S3_P4E.3_K4.2_C4.2_[C-2G]_[T-1C]_H4.2_A4.1_F4.1_T4.2_[G10C]_[T11C] (ssRNA)
RNA: ACAAACGCUAUAUAUUACCACAAAC
B16: Id_ii_S3_P4E.3_K4.2_C4.2_[C-2G]_[T-1C]_H4.2_A4.1_F4.1_T4.2_[G10C]_[T11A] (ssRNA)
RNA: ACAAACGCUAUAUAUUACAACAAAC
B17: Id_ii_S3_P4E.3_K4.2_C4.2_[C-2G]_[T-1C]_H4.2_A4.1_F4.1_T4.2_[G10T]_[T11C] (ssRNA)
RNA: ACAAACGCUAUAUAUUAUCACAAAC
B18: Id_ii_S3_P4E.3_K4.2_C4.2_[C-2G]_[T-1C]_H4.2_A4.1_F4.1_T4.2_[G10T] (ssRNA)
RNA: ACAAACGCUAUAUAUUAUUACAAAC
B19: Id_ii_S3_P4E.3_K4.2_C4.2_[C-2G]_[T-1C]_H4.2_A4.1_F4.1_T4.2_[G10A] (ssRNA)
RNA: ACAAACGCUAUAUAUUAAUACAAAC
B20: Id_ii_S3_P4E.3_K4.2_C4.2_[C-2G]_[T-1A]_H4.2_A4.1_F4.1_T4.2_[G10C]_[T11C] (ssRNA)
RNA: ACAAACGAUAUAUAUUACCACAAAC
B21: Id_ii_S3_P4E.3_K4.2_C4.2_[C-2G]_[T-1A]_H4.2_A4.1_F4.1_T4.2_[G10C]_[T11A] (ssRNA)
RNA: ACAAACGAUAUAUAUUACAACAAAC
B22: Id_ii_S3_P4E.3_K4.2_C4.2_[C-2G]_[T-1A]_H4.2_A4.1_F4.1_T4.2_[G10T]_[T11G] (ssRNA)
RNA: ACAAACGAUAUAUAUUAUGACAAAC
B23: Id_ii_S3_P4E.3_K4.2_C4.2_[C-2G]_[T-1A]_H4.2_A4.1_F4.1_T4.2_[G10T]_[T11A] (ssRNA)
RNA: ACAAACGAUAUAUAUUAUAACAAAC
B24: Id_ii_S3_P4E.3_K4.2_C4.2_[C-2G]_[T-1A]_H4.2_A4.1_F4.1_T4.2_[G10A]_[T11G] (ssRNA)
RNA: ACAAACGAUAUAUAUUAAGACAAAC
B25: Ib_S1_P5E.1_K5.1_C5.1_H5.1_A5.1_[T6A]_F5.1_[A10C]_T5.1 (ssRNA)
RNA: UCUCUUUGUAUAAUUCUCUCUU
B26: Id_ii_S3_P4E.3_K4.2_C4.2_[C-2G]_[T-1A]_H4.2_A4.1_F4.1_T4.2_[G10A]_[T11C] (ssRNA)
RNA: ACAAACGAUAUAUAUUAACACAAAC
B27: Id_ii_S3_P4E.3_K4.2_C4.2_[C-2G]_[T-1A]_H4.2_A4.1_F4.1_T4.2_[G10A]_[T11A] (ssRNA)
RNA: ACAAACGAUAUAUAUUAAAACAAAC

Biological target: T1, PUF4 RNA-binding domain
Experiment: Mg; RNA-MaP; 20 mM Na-HEPES pH 7.4, 30 mM KOAc, 0.75 mM MgCl2, 0.1% Tween-20, 5% glycerol, 0.1 mg/mL BSA, 2 mM DTT; 25 C; 0.0125-409.6 nM protein
Details: tags: N-His6-TEV cleaved; C-SNAP kept, Cy3B-labelled; label: tethered on chip by stalled RNA polymerase

Row | Binder | Kd [nM]
1 | B1 | > 2300
2 | B2 | > 2300
3 | B3 | 15
4 | B4 | 2120
5 | B5 | 2260
6 | B6 | > 2300
7 | B7 | > 2300
8 | B8 | 1880
9 | B9 | > 2300
10 | B10 | > 2300
11 | B11 | > 2300
12 | B12 | 1760
13 | B13 | 48.8
14 | B14 | 90
15 | B15 | 27.1
16 | B16 | 24.5
17 | B17 | 20.1
18 | B18 | 14.4
19 | B19 | 19.9
20 | B20 | 53.1
21 | B21 | 50.4
22 | B22 | 48.6
23 | B23 | 41.7
24 | B24 | 76.8
25 | B25 | 10.6
26 | B26 | 52.9
27 | B27 | 74.6
